One series has as its system AncSZ. In words: phosphorylation enrichment, bacterial display (enrichment ratio); higher = better substrate or ligand; peptides without Tyr show the background.
The next series deals with EPHB1 (UniProt P54762). Described as above.
The target in a further series is EPHB2 (UniProt P29323). Described as above.
A further series addresses FGFR1 (UniProt P11362). Described as above.
The target of another series is FGFR3 (UniProt P22607). Described as above.
In the next series the test system is Fer (mouse). The description is as above.
The next series addresses Fes (UniProt P07332). The series is described as above.
For another series, the target named is Fyn (UniProt P06241). The description is as above.
Chain of Fyn (P06241 whole entry, looked up): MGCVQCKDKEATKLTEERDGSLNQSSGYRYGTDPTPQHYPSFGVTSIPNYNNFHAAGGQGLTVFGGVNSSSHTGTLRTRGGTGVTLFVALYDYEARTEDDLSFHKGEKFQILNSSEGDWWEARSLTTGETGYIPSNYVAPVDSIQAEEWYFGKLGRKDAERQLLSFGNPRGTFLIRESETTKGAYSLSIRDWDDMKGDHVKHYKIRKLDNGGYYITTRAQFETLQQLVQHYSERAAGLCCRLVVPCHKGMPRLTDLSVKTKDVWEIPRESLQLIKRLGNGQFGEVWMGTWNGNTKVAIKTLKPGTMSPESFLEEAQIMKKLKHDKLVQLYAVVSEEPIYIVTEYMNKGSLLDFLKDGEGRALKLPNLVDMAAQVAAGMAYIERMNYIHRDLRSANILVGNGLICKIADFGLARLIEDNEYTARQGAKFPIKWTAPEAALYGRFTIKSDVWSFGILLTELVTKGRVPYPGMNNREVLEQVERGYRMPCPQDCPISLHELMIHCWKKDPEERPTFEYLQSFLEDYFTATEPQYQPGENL
The next series has as its target Hck (UniProt P08631). The series is described as above.
Another series concerns the target Jak2 (UniProt O60674). The series is described as above.
Another series addresses MERTK (UniProt Q12866). The description is as above.
For another series, the system named is c-Abl (mouse). The description is as above.
The test system of another series is c-Src. Described as above.
In another series the target is Grb2 SH2 (UniProt P62993). The series can be described thus: SH2 binding enrichment of the phosphorylated peptide, bacterial display (enrichment ratio); higher = better substrate or ligand; peptides without Tyr show the background.
A further series addresses SHP2-C SH2. Described as above.
A further series addresses c-Src SH2. Described as above.
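Wherever SH2 binding enrichment of the phosphorylated peptide, bacterial display is given: peptide library displayed on the E. coli surface as eCPX fusions, selected cells deep-sequenced, score is each peptide's frequency after selection divided by its frequency in the input.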
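Wherever phosphorylation enrichment, bacterial display is given: 11-residue human phosphosite peptides and single-mutation variants displayed on the E. coli surface, counted by deep sequencing, each peptide's frequency after selection divided by its frequency in the unselected input library; frequency after pTyr selection over input frequency; kinase dosed for 20-30% of maximal phosphorylation in three min.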

Chain of Hck (P08631 whole entry, looked up): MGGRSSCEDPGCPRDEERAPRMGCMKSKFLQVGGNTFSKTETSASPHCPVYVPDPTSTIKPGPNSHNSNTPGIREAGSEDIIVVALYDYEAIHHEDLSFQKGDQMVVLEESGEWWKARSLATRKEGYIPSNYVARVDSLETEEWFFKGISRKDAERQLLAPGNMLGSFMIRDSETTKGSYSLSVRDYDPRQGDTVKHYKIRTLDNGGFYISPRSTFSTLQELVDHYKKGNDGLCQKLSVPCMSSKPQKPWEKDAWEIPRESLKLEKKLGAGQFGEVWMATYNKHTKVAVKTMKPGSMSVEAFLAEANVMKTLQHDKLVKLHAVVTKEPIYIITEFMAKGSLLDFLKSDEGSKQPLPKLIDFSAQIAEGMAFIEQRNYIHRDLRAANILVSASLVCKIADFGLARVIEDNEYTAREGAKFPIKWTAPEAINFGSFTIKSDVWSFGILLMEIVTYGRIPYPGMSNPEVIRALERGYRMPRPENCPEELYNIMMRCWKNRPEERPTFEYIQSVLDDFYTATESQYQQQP
Chain of EPHB1 (P54762 whole entry, looked up): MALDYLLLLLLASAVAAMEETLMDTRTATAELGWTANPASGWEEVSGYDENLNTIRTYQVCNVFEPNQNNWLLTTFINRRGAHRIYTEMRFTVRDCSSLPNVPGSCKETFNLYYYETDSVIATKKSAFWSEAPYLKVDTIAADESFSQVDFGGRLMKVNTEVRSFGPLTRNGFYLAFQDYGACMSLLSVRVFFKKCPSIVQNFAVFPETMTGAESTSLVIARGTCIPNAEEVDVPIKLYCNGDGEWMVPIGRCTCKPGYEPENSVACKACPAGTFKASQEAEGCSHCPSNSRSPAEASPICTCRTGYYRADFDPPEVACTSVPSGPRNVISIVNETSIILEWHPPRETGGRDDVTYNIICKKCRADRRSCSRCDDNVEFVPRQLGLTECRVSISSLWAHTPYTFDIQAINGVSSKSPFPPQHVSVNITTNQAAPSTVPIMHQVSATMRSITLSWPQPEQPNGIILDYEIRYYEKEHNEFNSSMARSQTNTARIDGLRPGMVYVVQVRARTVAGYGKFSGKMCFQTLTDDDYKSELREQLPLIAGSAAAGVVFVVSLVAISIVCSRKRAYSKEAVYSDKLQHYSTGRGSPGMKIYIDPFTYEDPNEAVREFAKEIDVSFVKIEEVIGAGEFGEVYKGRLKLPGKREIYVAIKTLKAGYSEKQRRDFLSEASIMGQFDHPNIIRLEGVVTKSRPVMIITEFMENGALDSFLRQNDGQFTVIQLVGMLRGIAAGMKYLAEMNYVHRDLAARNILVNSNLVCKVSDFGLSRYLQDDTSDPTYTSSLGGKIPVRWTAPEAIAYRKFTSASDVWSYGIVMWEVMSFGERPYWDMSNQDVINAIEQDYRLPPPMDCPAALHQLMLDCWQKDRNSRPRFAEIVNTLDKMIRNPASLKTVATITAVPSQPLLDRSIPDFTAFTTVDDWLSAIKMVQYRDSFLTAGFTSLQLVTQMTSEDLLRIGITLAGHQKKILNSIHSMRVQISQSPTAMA
Chain of EPHB2 (P29323 whole entry, looked up): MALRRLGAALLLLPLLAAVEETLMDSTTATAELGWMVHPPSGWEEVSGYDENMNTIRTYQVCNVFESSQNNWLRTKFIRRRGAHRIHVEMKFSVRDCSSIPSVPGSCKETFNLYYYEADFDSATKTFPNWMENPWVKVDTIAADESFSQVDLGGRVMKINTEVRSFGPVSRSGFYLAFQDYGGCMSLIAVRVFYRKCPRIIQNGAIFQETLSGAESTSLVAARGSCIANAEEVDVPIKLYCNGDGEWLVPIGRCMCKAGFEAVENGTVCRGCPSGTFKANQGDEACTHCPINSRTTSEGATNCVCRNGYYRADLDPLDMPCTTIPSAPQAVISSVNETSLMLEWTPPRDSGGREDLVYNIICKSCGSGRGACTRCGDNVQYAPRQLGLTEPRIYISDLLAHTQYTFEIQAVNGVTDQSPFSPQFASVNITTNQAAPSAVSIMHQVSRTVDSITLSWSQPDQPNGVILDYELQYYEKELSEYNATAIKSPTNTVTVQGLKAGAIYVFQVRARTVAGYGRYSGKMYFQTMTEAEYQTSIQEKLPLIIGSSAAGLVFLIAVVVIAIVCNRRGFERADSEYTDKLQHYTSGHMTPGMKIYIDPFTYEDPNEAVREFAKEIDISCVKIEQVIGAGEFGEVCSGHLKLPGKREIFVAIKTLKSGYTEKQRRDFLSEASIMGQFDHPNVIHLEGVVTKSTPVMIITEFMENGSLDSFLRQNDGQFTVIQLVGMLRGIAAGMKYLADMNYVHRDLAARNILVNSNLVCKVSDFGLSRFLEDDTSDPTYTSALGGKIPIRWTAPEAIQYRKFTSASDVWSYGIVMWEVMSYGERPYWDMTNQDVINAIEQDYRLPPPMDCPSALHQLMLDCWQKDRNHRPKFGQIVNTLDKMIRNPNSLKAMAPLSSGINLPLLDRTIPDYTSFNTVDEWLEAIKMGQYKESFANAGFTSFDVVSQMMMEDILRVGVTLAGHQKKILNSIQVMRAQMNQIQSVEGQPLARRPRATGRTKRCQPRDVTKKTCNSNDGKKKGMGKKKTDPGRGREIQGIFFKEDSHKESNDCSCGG
Chain of Jak2 (O60674 whole entry, looked up): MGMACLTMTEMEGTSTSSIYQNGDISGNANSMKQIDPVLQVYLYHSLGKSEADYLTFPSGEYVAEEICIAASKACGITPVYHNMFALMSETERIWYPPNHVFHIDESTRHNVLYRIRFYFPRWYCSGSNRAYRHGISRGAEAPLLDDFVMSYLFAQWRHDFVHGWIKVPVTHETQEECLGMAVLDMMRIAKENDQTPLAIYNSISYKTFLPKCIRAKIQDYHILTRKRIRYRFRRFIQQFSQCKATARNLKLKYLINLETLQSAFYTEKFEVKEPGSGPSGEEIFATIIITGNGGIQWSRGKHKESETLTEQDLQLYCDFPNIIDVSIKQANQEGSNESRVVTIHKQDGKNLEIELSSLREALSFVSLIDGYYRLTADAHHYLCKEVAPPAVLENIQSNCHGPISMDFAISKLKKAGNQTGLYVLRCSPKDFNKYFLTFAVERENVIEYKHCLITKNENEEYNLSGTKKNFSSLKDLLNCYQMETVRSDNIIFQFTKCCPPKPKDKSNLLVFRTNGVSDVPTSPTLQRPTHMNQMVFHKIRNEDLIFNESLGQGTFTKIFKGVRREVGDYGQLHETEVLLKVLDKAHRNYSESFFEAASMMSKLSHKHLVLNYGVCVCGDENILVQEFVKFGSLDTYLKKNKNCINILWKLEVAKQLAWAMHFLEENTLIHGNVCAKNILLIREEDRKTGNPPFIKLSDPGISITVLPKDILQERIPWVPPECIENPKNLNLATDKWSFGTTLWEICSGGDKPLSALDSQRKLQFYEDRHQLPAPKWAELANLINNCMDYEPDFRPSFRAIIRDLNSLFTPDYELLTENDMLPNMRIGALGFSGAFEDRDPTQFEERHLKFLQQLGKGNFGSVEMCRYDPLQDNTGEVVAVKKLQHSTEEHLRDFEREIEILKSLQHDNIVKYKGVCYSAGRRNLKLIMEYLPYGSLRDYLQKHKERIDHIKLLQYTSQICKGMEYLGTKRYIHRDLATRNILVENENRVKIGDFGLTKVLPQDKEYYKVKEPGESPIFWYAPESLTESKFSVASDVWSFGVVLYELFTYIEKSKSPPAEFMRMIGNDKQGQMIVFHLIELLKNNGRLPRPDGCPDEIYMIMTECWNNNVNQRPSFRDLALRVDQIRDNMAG
Chain of FGFR1 (P11362 whole entry, looked up): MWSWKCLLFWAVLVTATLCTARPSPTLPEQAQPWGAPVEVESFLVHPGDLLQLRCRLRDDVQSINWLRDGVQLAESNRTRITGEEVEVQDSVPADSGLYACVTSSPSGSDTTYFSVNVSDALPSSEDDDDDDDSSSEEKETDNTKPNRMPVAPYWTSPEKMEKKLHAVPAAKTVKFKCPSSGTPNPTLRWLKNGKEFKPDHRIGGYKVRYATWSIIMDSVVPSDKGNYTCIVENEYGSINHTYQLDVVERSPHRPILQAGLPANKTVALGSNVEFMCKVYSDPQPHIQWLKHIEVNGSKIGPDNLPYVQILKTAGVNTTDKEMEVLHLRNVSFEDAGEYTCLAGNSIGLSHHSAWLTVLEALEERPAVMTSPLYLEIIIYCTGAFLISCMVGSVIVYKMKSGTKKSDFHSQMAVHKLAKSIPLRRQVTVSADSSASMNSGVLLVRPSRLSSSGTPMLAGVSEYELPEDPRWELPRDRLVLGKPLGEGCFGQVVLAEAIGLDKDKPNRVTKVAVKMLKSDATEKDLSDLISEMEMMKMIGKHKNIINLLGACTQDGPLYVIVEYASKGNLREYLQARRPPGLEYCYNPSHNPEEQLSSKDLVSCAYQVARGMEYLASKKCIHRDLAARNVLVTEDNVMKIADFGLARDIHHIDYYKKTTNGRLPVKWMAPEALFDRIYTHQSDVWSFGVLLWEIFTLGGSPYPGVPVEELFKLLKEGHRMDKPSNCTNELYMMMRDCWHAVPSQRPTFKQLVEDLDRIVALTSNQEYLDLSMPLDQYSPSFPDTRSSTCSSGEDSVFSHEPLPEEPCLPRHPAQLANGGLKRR

As to RVNSAYQEKVS [ACAN_Y100_D102E], the phosphorylation enrichment in the series with AncSZ is 0.407; in the series with EPHB1, 0.413; with EPHB2, 0.397; with FGFR1 it was 0.678; in the series with FGFR3, 0.423; with Fer (mouse), 0.313. For the same sequence, the phosphorylation enrichment in the series with Fes was 0.667; in the series with Fyn, 0.378; with Hck it was 0.49; with Jak2, 0.538; with MERTK, 0.5; in the series on c-Abl (mouse), 0.489. Besides, the phosphorylation enrichment in the series with c-Src is 0.291. Also, the SH2 binding enrichment with Grb2 SH2 stood at 1.08; with SHP2-C SH2, 0.529; with c-Src SH2 it was 0.448.

Consider DLAGRYFALKS [CKB_Y173_YF], for which the phosphorylation enrichment stood at 0.633 with AncSZ; 0.487 in the series with EPHB1; 0.574 with EPHB2; 0.412 with FGFR1; 0.613 with FGFR3; 0.37 in the series on Fer (mouse). The phosphorylation enrichment was found to be 0.848 with Fes; 0.433 with Fyn; 0.453 with Hck; 1.57 with Jak2; 0.558 with MERTK; 1.49 in the series on c-Abl (mouse). Further, the phosphorylation enrichment in the series on c-Src was 0.545. In addition, the results for the SH2 binding enrichment in the series with Grb2 SH2, with SHP2-C SH2 and with c-Src SH2 were 1.38, 0.688 and 0.585, respectively.

Turning to HVSISYDIPLT [GAB1_Y307_P311L], the phosphorylation enrichment worked out at 3.56 in the series with AncSZ; 1.19 with EPHB1; 1.48 with EPHB2; 1.09 with FGFR1; 1.53 with FGFR3; 1.12 with Fer (mouse). Moreover, the phosphorylation enrichment with Fes turned out to be 2.15; with Fyn, 1.31; in the series with Hck, 0.99; with Jak2, 1.86; with MERTK it was 4.9; with c-Abl (mouse), 1.96. The phosphorylation enrichment with c-Src turned out to be 1.01. Moreover, the SH2 binding enrichment with Grb2 SH2 amounted to 0.96; with SHP2-C SH2, 0.91; with c-Src SH2, 3.72.

For the sequence PMFTKYGNSLL [RPGRIP1L_Y196], the phosphorylation enrichment with AncSZ stood at 1.45; in the series with EPHB1, 1.07; with EPHB2, 0.643; in the series with FGFR1, 0.645; with FGFR3 it was 0.912; in the series on Fer (mouse), 1.44. Also, the phosphorylation enrichment in the series with Fes came out at 1.73; with Fyn, 0.558; with Hck, 0.636; in the series with Jak2 it was 1.44; with MERTK, 0.708; in the series with c-Abl (mouse) it was 1.49. In addition, the phosphorylation enrichment in the series on c-Src stood at 0.951. Also, the SH2 binding enrichment with Grb2 SH2 amounted to 0.952; with SHP2-C SH2, 0.679; in the series with c-Src SH2 it was 0.749.

On to RSRSPYSPVLR [CDK13_Y399], for which the phosphorylation enrichment turned out to be 0.917 in the series on AncSZ; 0.476 in the series with EPHB1; 0.477 with EPHB2; 1.06 in the series with FGFR1; 0.584 with FGFR3; 0.423 with Fer (mouse). For the same sequence, the phosphorylation enrichment in the series with Fes was 0.854; with Fyn, 0.551; with Hck, 0.628; with Jak2 it was 0.563; with MERTK, 0.674; in the series on c-Abl (mouse), 0.763. Besides, in the series with c-Src, the phosphorylation enrichment was determined as 0.701. For the same sequence, the figures for the SH2 binding enrichment with Grb2 SH2, in the series with SHP2-C SH2 and with c-Src SH2 were 1.2, 1.47 and 0.66, respectively.

For the origin of these results see the supplement of paper PMC10065799, “High-throughput profiling of sequence recognition by tyrosine kinases and SH2 domains using bacterial peptide display” (eLife, 2023).
